Publication PMC4383044, “Molecular insights into RNA and DNA helicase evolution from the determinants of specificity for a DEAD-box RNA helicase” (eLife, 2014)

How the values were obtained:
[1] = molecular target: T1, Mss116 helicase core (D1D2, residues 88–597) (Saccharomyces cerevisiae, UniProt P15424); assay: kinetic gel-based dsRNA unwinding; type: biochemical; settings: 5 mM ATP-Mg, 2 uM D1D2, 125 nM labelled 12-bp dsRNA, pH 7.5, 22 °C
T1 construct: helicase core D1D2 (residues 88-597; D1, D2 and CTE), lacking unstructured N- (37-87) and C-terminal (598-664) extensions; expressed as N-terminal MalE (MBP) fusion in E. coli Rosetta 2; D1D2 used for crystals and kinetic unwinding
T1 sequence (P15424 88-597): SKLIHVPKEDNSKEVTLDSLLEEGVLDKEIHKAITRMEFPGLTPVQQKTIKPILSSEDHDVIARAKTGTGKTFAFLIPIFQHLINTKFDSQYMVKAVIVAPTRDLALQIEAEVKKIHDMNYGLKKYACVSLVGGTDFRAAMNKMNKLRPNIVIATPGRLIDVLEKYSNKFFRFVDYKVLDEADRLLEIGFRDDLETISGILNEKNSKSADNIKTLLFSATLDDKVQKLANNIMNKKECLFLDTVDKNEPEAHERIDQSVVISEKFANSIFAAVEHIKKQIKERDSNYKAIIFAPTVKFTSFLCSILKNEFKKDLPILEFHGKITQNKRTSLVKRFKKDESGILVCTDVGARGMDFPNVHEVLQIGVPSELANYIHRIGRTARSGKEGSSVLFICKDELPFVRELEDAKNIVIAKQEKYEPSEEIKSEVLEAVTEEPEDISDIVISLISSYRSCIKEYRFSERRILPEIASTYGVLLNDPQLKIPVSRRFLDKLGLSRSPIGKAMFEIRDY

[2] = molecular target: T2, Mss116 helicase core D1D2, MBP-tagged (Saccharomyces cerevisiae? (paper: yeast), UniProt P15424 88-597); assay: gel-based fluorescence closed-state/unwinding assay; ADP-BeFx titrated (value is nucleotide concentration), 2 uM protein; 20 mM Tris-HCl pH 7.5, 100 mM KCl, 10% glycerol, 1 mM DTT, 5 mM MgCl2, 0.1 mg/ml BSA, 22 C, >=1 h; EMSA gels 6% at 4 C in 0.5x TBE; SEC with 200 mM KCl, no BSA; settings: protein: recombinant; tags: N-terminal MBP (MalE); label: 5' FAM, 3' Iowa Black FQ; self-complementary, 2 strand copies, 12 bp
T2 sequence: T1 sequence (P15424 88-597)

Mss116 D2, MBP-tagged [3] = molecular target: T3, Mss116 D2, MBP-tagged (Saccharomyces cerevisiae? (paper: yeast), UniProt P15424 342-597); assay: EMSA; no nucleotide; Hill 1.5; 20 mM Tris-HCl pH 7.5, 100 mM KCl, 10% glycerol, 1 mM DTT, 5 mM MgCl2, 0.1 mg/ml BSA, 22 C, >=1 h; EMSA gels 6% at 4 C in 0.5x TBE; SEC with 200 mM KCl, no BSA; settings: protein: recombinant; tags: N-terminal MBP (MalE); label: 5' FAM; self-complementary, 2 strand copies, 12 bp
T3 sequence: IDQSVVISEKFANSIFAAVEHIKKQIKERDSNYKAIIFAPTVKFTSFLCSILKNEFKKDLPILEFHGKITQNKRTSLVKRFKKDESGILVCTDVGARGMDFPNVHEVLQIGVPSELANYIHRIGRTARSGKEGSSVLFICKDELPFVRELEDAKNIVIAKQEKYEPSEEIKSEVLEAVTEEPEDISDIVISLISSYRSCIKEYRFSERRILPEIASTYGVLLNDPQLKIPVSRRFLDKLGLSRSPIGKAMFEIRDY

[4] = molecular target: T4, Mss116 helicase core D1D2 (Saccharomyces cerevisiae? (paper: yeast), UniProt P15424 88-597); assay: SEC; 5 mM ADP-BeFx; A260/A280 0.6, open; no complex maintained on column; 20 mM Tris-HCl pH 7.5, 100 mM KCl, 10% glycerol, 1 mM DTT, 5 mM MgCl2, 0.1 mg/ml BSA, 22 C, >=1 h; EMSA gels 6% at 4 C in 0.5x TBE; SEC with 200 mM KCl, no BSA; settings: protein: recombinant; tags: expressed as MalE fusion; self-complementary, 2 strand copies, 12 bp
T4 sequence: T1 sequence (P15424 88-597)

Mss116 D2, MBP-tagged [5] = molecular target: T3, Mss116 D2, MBP-tagged; assay: competition; unlabeled B-DNA displacing 250 nM 5' FAM-dsRNA from 500 nM MBP-D2; 20 mM Tris-HCl pH 7.5, 100 mM KCl, 10% glycerol, 1 mM DTT, 5 mM MgCl2, 0.1 mg/ml BSA, 22 C, >=1 h; EMSA gels 6% at 4 C in 0.5x TBE; SEC with 200 mM KCl, no BSA; settings: protein: recombinant; tags: N-terminal MBP (MalE); self-complementary, 2 strand copies, 12 bp
Mss116 D2, MBP-tagged [6] = molecular target: T3, Mss116 D2, MBP-tagged; assay: competition; unlabeled dsRNA displacing 250 nM 5' FAM-B-DNA from 500 nM MBP-D2; 20 mM Tris-HCl pH 7.5, 100 mM KCl, 10% glycerol, 1 mM DTT, 5 mM MgCl2, 0.1 mg/ml BSA, 22 C, >=1 h; EMSA gels 6% at 4 C in 0.5x TBE; SEC with 200 mM KCl, no BSA; settings: protein: recombinant; tags: N-terminal MBP (MalE); self-complementary, 2 strand copies, 12 bp
Mss116 D2, MBP-tagged [7] = molecular target: T3, Mss116 D2, MBP-tagged; assay: EMSA; no nucleotide; Hill 1.6; 20 mM Tris-HCl pH 7.5, 100 mM KCl, 10% glycerol, 1 mM DTT, 5 mM MgCl2, 0.1 mg/ml BSA, 22 C, >=1 h; EMSA gels 6% at 4 C in 0.5x TBE; SEC with 200 mM KCl, no BSA; settings: protein: recombinant; tags: N-terminal MBP (MalE); label: 5' FAM; self-complementary, 2 strand copies, 12 bp
Mss116 D2, MBP-tagged [8] = molecular target: T3, Mss116 D2, MBP-tagged; assay: EMSA; no nucleotide; Hill 2.2; 20 mM Tris-HCl pH 7.5, 100 mM KCl, 10% glycerol, 1 mM DTT, 5 mM MgCl2, 0.1 mg/ml BSA, 22 C, >=1 h; EMSA gels 6% at 4 C in 0.5x TBE; SEC with 200 mM KCl, no BSA; settings: protein: recombinant; tags: N-terminal MBP (MalE); label: 5' FAM; self-complementary, 2 strand copies, 12 bp

Nc1ncnc2c1ncn2[C@@H]1O[C@H](COP(=O)(O)OP(=O)(O)OP(=O)(O)O)[C@@H](O)[C@H]1O [ATP]
kinetic gel-based dsRNA unwinding [1]: only ATP, and not other NTPs, catalyzes the unwinding of the dsRNA

B1: 12-bp dsRNA, FAM/IBFQ (dsRNA)
RNA 1: CCCCCGCGGGGG
RNA 2: CCCCCGCGGGGG
apparent K (half saturation) [2]: 140 µM

B2: 12-bp A-DNA duplex, 5' FAM (dsDNA)
DNA 1: CCCCCGCGGGGG
DNA 2: CCCCCGCGGGGG
apparent K (half saturation) (Mss116 D2, MBP-tagged [3]): 410 nM

B3: 12-bp B-DNA duplex, unlabeled (dsDNA)
DNA 1: GCGCGCGCGCGC
DNA 2: GCGCGCGCGCGC
binding result [4]: no binding | Ki (Mss116 D2, MBP-tagged [5]): 1.7 ± 0.2 µM

B4: 12-bp dsRNA, unlabeled (dsRNA)
RNA 1: CCCCCGCGGGGG
RNA 2: CCCCCGCGGGGG
Ki (Mss116 D2, MBP-tagged [6]): 0.86 ± 0.04 µM

B5: 12-bp B-DNA duplex, 5' FAM (dsDNA)
DNA 1: GCGCGCGCGCGC
DNA 2: GCGCGCGCGCGC
apparent K (half saturation) (Mss116 D2, MBP-tagged [7]): 510 nM

B6: 12-bp dsRNA, 5' FAM (dsRNA)
RNA 1: CCCCCGCGGGGG
RNA 2: CCCCCGCGGGGG
apparent K (half saturation) (Mss116 D2, MBP-tagged [8]): 400 nM
